For assay [1], the target named is T1, RAD-displayed Fragment 1A of human LGR5 (human).
T1 construct: also called Frag1A
T1 sequence (O75473 22-37, looked up): GSSPRSGVLLRGCPTH
Kind of assay: bio-layer interferometry (Octet), captured RAD-displayed fragment. For orientation: Biolayer interferometry detects binding as a change in optical thickness at a sensor tip.

In a further assay the target is T2, α-LGR5 epitope peptide (human).
T2 construct: Peptide added to scFv-α-LGR5 absorbed on Ni-NTA biosensors; also called the peptide
T2 peptide: SSPRSGVLLRGCPTHCHC
Put plainly: bio-layer interferometry (Octet), scFv absorbed to Ni-NTA biosensors, epitope peptide SEQ ID NO: 210 added; scFv fragment, not whole IgG. The protocol: Binding affinities were determined by bio-layer interferometry measurements using the Octet platform.
Binding affinity was determined by biolayer interferometry on the Octet platform.

Assay [2] addresses T3, endogenous human LGR5 of cancer cell lines (human, UniProt O75473 22-907).
T3 sequence: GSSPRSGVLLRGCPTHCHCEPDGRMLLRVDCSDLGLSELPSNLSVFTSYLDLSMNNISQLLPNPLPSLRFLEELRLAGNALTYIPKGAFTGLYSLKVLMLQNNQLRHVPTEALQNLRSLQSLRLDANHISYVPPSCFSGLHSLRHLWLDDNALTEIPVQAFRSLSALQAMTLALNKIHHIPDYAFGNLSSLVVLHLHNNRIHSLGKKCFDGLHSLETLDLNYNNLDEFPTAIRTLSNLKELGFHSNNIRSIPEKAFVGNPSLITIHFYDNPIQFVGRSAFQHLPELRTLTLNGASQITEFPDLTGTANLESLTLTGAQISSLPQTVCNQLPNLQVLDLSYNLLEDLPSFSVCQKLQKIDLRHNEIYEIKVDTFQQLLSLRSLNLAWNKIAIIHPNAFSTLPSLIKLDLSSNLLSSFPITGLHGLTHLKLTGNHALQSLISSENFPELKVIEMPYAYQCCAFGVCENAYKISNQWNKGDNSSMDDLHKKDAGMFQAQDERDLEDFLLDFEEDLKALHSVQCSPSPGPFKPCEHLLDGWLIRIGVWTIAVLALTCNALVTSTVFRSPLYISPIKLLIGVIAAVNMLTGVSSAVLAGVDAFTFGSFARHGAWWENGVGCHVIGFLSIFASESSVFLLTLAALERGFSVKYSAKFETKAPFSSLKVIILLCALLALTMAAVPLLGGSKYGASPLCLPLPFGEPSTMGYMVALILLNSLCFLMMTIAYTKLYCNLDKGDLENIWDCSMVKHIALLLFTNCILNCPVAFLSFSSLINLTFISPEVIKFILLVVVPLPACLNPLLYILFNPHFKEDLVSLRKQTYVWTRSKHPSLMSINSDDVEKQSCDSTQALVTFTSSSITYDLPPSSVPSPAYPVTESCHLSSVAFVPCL
Put plainly: cell-based or functional assay.

The target of another assay is T4, murine LGR4 transgene (mouse, UniProt A2ARI4 25-951).
T4 construct: whole, on cells; Overexpressed in HEK293T cells with N-terminal HA tag, V2 receptor tail and eGFP; also tested as lysate; also called mLGR4
Kind of assay: western blot of lysates of HEK293T cells expressing HA-tagged LGR-eGFP transgenes, probed with hybridoma clone 2. A general note: A western blot detects proteins with antibodies after separation by electrophoresis.

The next assay has as its target T5, human LGR6 transgene (human, UniProt Q9HBX8 25-967).
T5 construct: whole, on cells; Overexpressed in HEK293T cells with N-terminal HA tag, V2 receptor tail and eGFP; also tested as lysate; also called hLGR6; LGR6-eGFP
T5 sequence (looked up): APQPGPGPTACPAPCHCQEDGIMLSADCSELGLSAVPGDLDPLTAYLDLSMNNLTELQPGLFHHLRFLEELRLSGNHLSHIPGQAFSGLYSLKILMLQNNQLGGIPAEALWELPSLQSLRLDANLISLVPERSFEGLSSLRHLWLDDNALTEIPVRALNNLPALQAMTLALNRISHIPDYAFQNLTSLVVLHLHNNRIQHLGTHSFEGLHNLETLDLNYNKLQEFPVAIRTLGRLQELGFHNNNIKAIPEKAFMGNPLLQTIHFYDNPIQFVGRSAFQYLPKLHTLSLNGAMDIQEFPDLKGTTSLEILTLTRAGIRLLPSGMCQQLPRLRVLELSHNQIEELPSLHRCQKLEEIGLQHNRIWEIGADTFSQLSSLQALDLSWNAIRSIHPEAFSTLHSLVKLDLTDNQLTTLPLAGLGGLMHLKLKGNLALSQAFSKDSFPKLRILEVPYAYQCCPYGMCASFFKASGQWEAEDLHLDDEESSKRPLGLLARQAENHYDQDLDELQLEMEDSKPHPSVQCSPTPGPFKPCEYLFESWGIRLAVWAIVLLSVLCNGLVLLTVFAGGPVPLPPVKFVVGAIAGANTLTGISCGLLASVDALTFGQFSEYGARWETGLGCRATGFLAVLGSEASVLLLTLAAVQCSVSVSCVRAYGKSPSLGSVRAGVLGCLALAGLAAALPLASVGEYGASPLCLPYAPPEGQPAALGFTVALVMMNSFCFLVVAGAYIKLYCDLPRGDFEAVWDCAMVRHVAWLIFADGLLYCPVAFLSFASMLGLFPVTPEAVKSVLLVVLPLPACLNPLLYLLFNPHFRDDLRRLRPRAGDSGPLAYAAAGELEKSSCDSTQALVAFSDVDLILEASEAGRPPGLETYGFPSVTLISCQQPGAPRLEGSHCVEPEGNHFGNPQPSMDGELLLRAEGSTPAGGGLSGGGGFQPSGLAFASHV
Kind of assay: immunofluorescence of HEK293T cells expressing LGR-eGFP transgenes, stained with fluorescent clone 2.

Another assay addresses T6, human LGR4 transgene (human, UniProt Q9BXB1 25-951).
T6 construct: whole, on cells; Overexpressed in HEK293T cells with N-terminal HA tag, V2 receptor tail and eGFP; also tested as lysate; also called hLGR4; LGR4-eGFP
Put plainly: flow cytometry of live HEK293T cells expressing LGR-eGFP transgenes, Fl-α-LGR5 against eGFP.

In a further assay the target is T7, murine LGR5 transgene (mouse, UniProt Q9Z1P4 22-907).
T7 construct: whole, on cells; Overexpressed in HEK293T cells with N-terminal HA tag, V2 receptor tail and eGFP; also tested as lysate; also called mLGR5; mLGR5-eGFP
T7 sequence (looked up): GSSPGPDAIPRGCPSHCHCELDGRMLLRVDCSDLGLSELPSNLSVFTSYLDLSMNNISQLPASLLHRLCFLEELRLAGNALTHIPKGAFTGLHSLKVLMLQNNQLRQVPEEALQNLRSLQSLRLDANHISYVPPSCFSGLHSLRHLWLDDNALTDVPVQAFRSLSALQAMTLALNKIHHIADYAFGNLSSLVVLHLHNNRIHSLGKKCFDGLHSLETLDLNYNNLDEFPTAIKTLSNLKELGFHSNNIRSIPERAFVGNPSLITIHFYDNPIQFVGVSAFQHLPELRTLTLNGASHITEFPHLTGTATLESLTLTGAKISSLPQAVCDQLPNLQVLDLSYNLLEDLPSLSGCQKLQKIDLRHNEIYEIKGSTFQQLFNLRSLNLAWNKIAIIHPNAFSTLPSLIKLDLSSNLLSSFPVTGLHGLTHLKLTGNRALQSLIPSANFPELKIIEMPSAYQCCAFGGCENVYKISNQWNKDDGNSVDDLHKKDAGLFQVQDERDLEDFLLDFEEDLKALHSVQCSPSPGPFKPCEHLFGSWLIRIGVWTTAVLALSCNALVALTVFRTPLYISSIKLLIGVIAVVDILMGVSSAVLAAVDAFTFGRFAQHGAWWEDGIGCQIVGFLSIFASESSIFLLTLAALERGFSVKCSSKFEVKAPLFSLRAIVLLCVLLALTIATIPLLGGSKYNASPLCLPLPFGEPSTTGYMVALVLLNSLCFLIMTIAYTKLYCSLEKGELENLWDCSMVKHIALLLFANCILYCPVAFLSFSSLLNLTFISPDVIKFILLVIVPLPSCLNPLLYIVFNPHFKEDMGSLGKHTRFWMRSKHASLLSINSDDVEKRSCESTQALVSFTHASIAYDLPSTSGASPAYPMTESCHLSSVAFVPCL
Described as above.

Assay [3] has as its target T1, RAD-displayed Fragment 1A of human LGR5. Kind of assay: bio-layer interferometry (Octet), captured RAD-displayed fragment, 10 µM Fragment 1 peptide included.
The next assay has as its target T8, murine LGR6 transgene (mouse, UniProt Q3UVD5 23-967).
T8 construct: whole, on cells; also called mLGR6
T8 sequence (looked up): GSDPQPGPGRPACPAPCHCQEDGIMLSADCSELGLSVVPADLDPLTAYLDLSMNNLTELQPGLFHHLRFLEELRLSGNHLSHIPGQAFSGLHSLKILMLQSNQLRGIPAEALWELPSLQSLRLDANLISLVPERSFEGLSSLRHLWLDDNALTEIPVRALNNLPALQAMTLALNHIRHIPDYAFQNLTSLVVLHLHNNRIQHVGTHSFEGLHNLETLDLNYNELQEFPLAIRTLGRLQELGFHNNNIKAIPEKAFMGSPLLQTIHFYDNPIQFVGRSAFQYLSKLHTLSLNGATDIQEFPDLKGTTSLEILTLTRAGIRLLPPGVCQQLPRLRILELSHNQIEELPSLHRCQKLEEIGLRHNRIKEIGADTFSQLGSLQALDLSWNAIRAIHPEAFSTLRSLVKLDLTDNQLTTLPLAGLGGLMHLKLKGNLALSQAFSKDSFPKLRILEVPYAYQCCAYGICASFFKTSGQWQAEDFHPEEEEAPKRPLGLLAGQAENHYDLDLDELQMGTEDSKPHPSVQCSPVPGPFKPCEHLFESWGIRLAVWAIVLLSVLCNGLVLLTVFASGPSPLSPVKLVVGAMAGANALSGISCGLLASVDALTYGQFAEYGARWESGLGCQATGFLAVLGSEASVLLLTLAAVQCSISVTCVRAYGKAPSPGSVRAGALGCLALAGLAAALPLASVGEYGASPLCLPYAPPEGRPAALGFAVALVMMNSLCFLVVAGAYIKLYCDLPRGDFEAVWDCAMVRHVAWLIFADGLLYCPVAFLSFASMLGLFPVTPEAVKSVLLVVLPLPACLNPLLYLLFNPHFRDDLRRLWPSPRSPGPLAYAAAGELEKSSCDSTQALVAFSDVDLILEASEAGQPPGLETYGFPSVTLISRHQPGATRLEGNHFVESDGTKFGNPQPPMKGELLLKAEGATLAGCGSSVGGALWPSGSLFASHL
Kind of assay: western blot of lysates of HEK293T cells expressing the LGR transgenes.

Data on five molecules can be found in patent US20250257126A1 (CAMBRIDGE ENTERPRISE, published 2025).

B1: α-LGR5 variant 4-ADC (antibody, human IgG1, kappa, V domains shown)
VH: QVQLVQSGAEVKKPGASVKVSCKASGYTFTNYWMQWVRQAPGQGLEWIGEIDPSDSYTNYNQKFQGRVTLTVDTSTSTAYMELSSLRSEDTAVYYCARSLSGYVDYWGQGTTVTVSS
VL: EIVMTQSPATLSLSPGERATLSCRASQDISNRLNWYQQKPGQAVRLLISYRSRRHTGIPARFSGSGSGTDYTLTISSLEPEDFAVYYCQQGNSLPPTFGGGTKLEIKR
modifications: MMAE coupled through a divinyl pyrimidine bridging linker inserted within the heavy chain-light chain disulphide linkages, drug-to-antibody ratio of 4
notes: ADC version of humanized variant 4 (clone 2.4); also called α-LGR5v4-ADC
A word on the Kd: it is the concentration at which binding is half-saturated. Read a high Kd as a looser complex. B1: in assay [1], the equilibrium dissociation constant (Kd) was 2 nM.

B2: scFv-α-LGR5 (scFv)
scFv: EIVMTQSPATLSLSPGERATLSCRASQDISNRLNWYQQKPGQAVRLLISYRSRRHTGIPARFSGSGSGTDYTLTISSLEPEDFAVYYCQQGNSLPPTFGGGTKLEIKGGGGSGGGGSGGGGSGGGGSQVQLVQSGAEVKKPGASVKVSCKASGYTFTNYWMQWVRQAPGQGLEWIGEIDPSDSYTNYNQKFQGRVTLTVDTSTSTAYMELSSLRSEDTAVYYCARSLSGYVDYWGQGTTVTVSS
notes: Made from human variant 4 (clone 2.4), VL-linker-VH; The protein in the Octet assay was 6xHis-tagged; also called scFv fragment; svFv-α-LGR5
In turn, B2 gave a dissociation constant (Kd) with α-LGR5 epitope peptide of 0.77 nM.

B3: α-LGR5 clone 2-ADC (antibody, mouse IgG2b, kappa, V domains shown)
VH: QVQLQQPGAELVKPGASVKLSCKASGYTFTNYWMQWVKQRPGQGLEWIGEIDPSDSYTNYNQKFKGKATLTVDTSSSTAYMQLSSLTSEDSAVYYCARSLSGYVDYWGQGTTLTVSS
VL: DIQMTQTTSSLSASLGDRVTISCRASQDISNRLNWYQQKPDGTVKLLISYRSRLHSGVPSRFSGSGSGTDYSLTISNLEQEDIATYFCQQGNSLPPTFGGGTKLEVRR
modifications: MMAE coupled through a divinyl pyrimidine bridging linker inserted within the heavy chain-light chain disulphide linkages, drug-to-antibody ratio of 4
notes: cleavable linker version; also called α-LGR5-ADC
As to B3, in assay [1], the Kd is 2.7 nM. In [2], the “EC50 of cell killing, LoVo cells” value worked out at 9 nM; the “EC50 of cell killing, NALM6 cells, single dose, three days” value was determined as 4 nM; the “EC50 of cell killing, REH cells” value turned out to be 10 nM; the “estimated EC50 for organoid cell apoptosis (cleaved caspase 3), CRC organoid line 1” value is ~5 nM. Moreover, the “estimated EC50 for organoid cell apoptosis (cleaved caspase 3), CRC organoid line 2” value in [2] was ~100 nM.

B4: α-LGR5 clone 2 (antibody, mouse IgG2b, kappa, V domains shown)
VH: B3 VH
VL: B3 VL
notes: Murine monoclonal antibody; In immunofluorescence and flow cytometry it carried a fluorophore (Alexa647 or DyLight 650) and is given as FI-α-LGR5 / FL-α-LGR5; also called a-LGR5; hybridoma clone 2
Regarding B4, the binding result in the assay with murine LGR4 transgene, with human LGR6 transgene, with human LGR4 transgene, with murine LGR5 transgene and in the assay with murine LGR6 transgene was “no binding” in each case. In assay [3], this molecule displayed an equilibrium dissociation constant (Kd) of 1.1 nM.

B5: α-LGR5 humanized (antibody, V domains shown)
VH: B3 VH
VL: DIQMTQTTSSLSASLGDRVTISCRASQDISNRLNWYQQKPDGTVKLLISYRSRLHSGVPSRFSGSGSGTDYSLTISNLEQEDIATYFCQQGNSLPPTFGGGTKLEVR
notes: Direct transposition of the murine clone 2 variable domains into the human IgG scaffold; also called α-LGR5 humanised
Turning to B5, the dissociation constant Kd in assay [1] turned out to be 3.4 nM.
